Experimental data published in patent US20170198050A1 (INHIBRX, published 2017).
Numbering of substitutions follows the chain as printed.

B1: 1G3 (VHH)
VHH: QVQLVQSGGGLVQPGGSLRLSCAASGFTFSSYAMSWVRQAPGKGLEWVSAIPAGDGSTKYADSVKGRFTISRDNAKNTVYLQMDSLKPEDTAVYFCAKSRGWSTVDDMDYWGKGTQV
notes: also called 41BB-targeting single domain antibody 1G3
B2: 4H04 (VHH)
VHH: QVQLQESGGGLVQAGDSLRLSCAASGWAFDNYGMAWFRQAPGKEREFIGRLAWNGGSTDYADSVKGRFTISRDNPKNTLYLQMNNLKPEDTAVYYCARQRSYSGYGIRTPQTYDYWGQGTQVT
notes: also called 4H4
B3: 4E01 (VHH)
VHH: B2 VHH with E6Q, D30G, Q39R, A61V, E89D, G104R, G106D
notes: also called 4E1
B4: 4F5 (VHH)
VHH: B2 VHH with Q5V, E6Q, A14P, D16G, N85S, G104R, T109A
notes: also called 4F05
B5: 1H4 (VHH)
VHH: QVQLVQSGGGLVQPGGSLRLSCVVSGFTFRSYAMSWVRQAPGKGLEWVSTINSGESSTKYADSVKGRFTISRDDAKNTLYLQMSDLKPEDTAVYFCAKHRGWSTVDDINYWGKGTQV
notes: also called 41BB-targeting single domain antibody 1H4
B6: 1H1 (VHH)
VHH: QVQLVQSGGGLVQPGGSLRLSCAASGFTFDDHAMSWVRQAPGKGLEWVSAISWNGHYTYYAESMKGRFAISRDNAKNTLYLQMNSLKSEDTAVYYCVKGWRGSYTRDRPFASWGQGTQV
notes: also called 41BB-targeting single domain antibody 1H1
B7: 1H8 (VHH)
VHH: EVQLVQSGGGLVQPGGSLRLSCAASGFTFSSYYMSWVRQAPGKGLEWVSTISTNTGGGSTYYAYADSVKGRFTISRDNAKNTLYLEMNSLKPEDTAQYYCVRTRWEGVYDYWGLGTQV
notes: also called 41BB-targeting single domain antibody 1H8
B8: hzRH3v5-1 (VHH)
VHH: EVQLLESGGGEVQPGGSLRLSCAASGFSFSINAMGWYRQAPGKRREFVAAIESGRNTVYAESVKGRFTISRDNAKNTVYLQMSSLRAEDTAVYYCGLLKGNRVVSPSVAYWGQGTLVTVKP
B9: hzRH3v9 (VHH)
VHH: B8 VHH with R44G
B10: RH3 (VHH)
VHH: QVQLQESGGGLVQPGGSLRLSCAVSGFSFSINAMGWYRQAPGKRREFLAAIDSGRNTVYAVSVKGRFTISRDNAKNTVYLQMNSLKPEDTAIYYCGLLKGNRVVSPSVAYWGQGTQVT
notes: also called RH03
B11: D1 (VHH)
VHH: EVQPVQSGGGLVQAGESLRLSCAASATIFSNNAMGWYRQAPGKQRELVATITTGGFTNYRDSVKGRFDISRDNAKNTVYLQMNNLKPEDTAVYYCNVVLRYSRDYSYTTVKEYWGQGTQV
notes: also called 41BB-targeting single domain antibody D1

These binders were tested against T1, recombinant human 41BB-mFc fusion protein (human, UniProt Q07011 24-186) (assay: ELISA, recombinant 41BB-mFc immobilized on Medisorp plate).
T1 construct: A fusion protein containing 41BB operably linked to a mouse Fc region
Experimental: Binding was assessed by ELISA wherein recombinant 41BB-mFc protein was immobilized on a Medisorp 96 well plate.
(§1) The 41BB-targeting single domain antibodies (sdAbs) referred to herein as 1G3 (SEQ ID NO: 432), 1H4 (SEQ ID NO: 436), 1H1 (SEQ ID NO: 440), 4H4 (SEQ ID NO: 16), 1H8 (SEQ ID NO: 444), 4F5 (SEQ ID NO: 23), and 4E1 (SEQ ID NO: 20) bind recombinant human 41BB (FIG. 2A), cynomolgus 41BB (FIG. 2B). The 41BB-targeting single domain antibodies (sdAbs) referred to herein as 4F5 (SEQ ID NO: 23), 4H04 (SEQ ID NO: 16), 4E01 (SEQ ID NO: 20), RH03 (SEQ ID NO: 25), and D1 (SEQ ID NO: 29) bind human 41BB expressed on the cell surface of CHO cells (FIG. 3). The 41BB-targeting sdAbs referred to herein as 4H04, RH03, and […]. For FIG. 2A, FIG. 2B, and FIG. 4, binding was assessed by ELISA wherein recombinant 41BB-mFc fusion protein (a fusion protein containing 41BB operably linked to a mouse Fc region) was immobilized on a Medisorp 96 well plate. For FIG. 3, binding was assessed by flow cytometry using 41BB expressing CHO cells, and the data is presented as median fluorescence intensity.

Row | Binder | binding result
1 | B1 | binds
2 | B2 | binds
3 | B3 | binds
4 | B4 | binds
5 | B5 | binds
6 | B6 | binds
7 | B7 | binds

Each binder was assayed against T2, human 41BB expressed on the cell surface (human, UniProt Q07011 24-255) (assay: flow cytometry on 41BB expressing 293freestyle cells).
T2 construct: whole, on cells; also called human 41BB on CHO cells; human 41BB on 293freestyle cells
T2 sequence (Q07011 24-255): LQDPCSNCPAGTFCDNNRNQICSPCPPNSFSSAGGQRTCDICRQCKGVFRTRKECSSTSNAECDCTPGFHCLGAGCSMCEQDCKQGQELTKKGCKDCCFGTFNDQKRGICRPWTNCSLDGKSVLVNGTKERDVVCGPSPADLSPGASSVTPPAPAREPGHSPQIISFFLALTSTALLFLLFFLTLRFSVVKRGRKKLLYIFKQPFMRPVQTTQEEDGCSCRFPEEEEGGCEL
Experimental: The PDL1-41BB targeting fusion proteins of the disclosure include a humanized anti-41BB sequence. In the studies presented herein, the PDL1-41BB targeting fusion proteins of the disclosure include a humanized anti-41BB sequence such as hzRH3v5-1 (SEQ ID NO: 30) and/or hzRH3v9 (SEQ ID NO: 82) bind both human and cynomolgus 41BB (FIGS. 9A, 9B), including human 41BB and cynomolgus 41BB expressed on the surface of CHO cells (FIGS. 9C, 9D). Binding was assessed by flow cytometry on 41BB expressing 293freestyle cells.

Row | Binder | binding result
8 | B8 | binds
9 | B9 | binds

These binders were tested against T2, human 41BB expressed on the cell surface (assay: flow cytometry on 41BB expressing CHO cells).
Excerpt: as §1

Row | Binder | binding result
10 | B2 | binds
11 | B3 | binds
12 | B4 | binds
13 | B10 | binds
14 | B11 | binds
